Source: patent publication US20130202646A1, “COMPOSITIONS AND METHODS FOR MODULATING AUTOPHAGY” (SAN DIEGO STATE UNIVERSITY (SDSU) FOUNDATION, priority 2010, published 2013)

B1: Atg5^K130R: dominant negative point mutant of Atg5 delivered by transient transfection in HL-1 cells (protein, UniProt Q9H1Y0 1-275, looked up, variant K130R)
Autophagy protein 5: MTDDKDVLRDVWFGRIPTCFTLYQDEITEREAEPYYLLLPRVSYLTLVTDKVKKHFQKVMRQEDISEIWFEYEGTPLKWHYPIGLLFDLLASSSALPWNITVHFKSFPEKDLLHCPSKDAIEAHFMSCMREADALKHKSQVINEMQKKDHKQLWMGLQNDRFDQFWAINRKLMEYPAEENGFRYIPFRIYQTTTERPFIQKLFRPVAADGQLHTLGDLLKEVCPSAIDPEDGEKKNQVMIHGIEPMLETPLQWLSEHLSYPDNFLHISIIPQPTD
modifications: mCherry fusion
notes: dominant negative point mutant of Atg5 delivered by transient transfection in HL-1 cells
B2: Tat-Atg5^K130R: Atg5^K130R expressed as a fusion protein with the protein transduction domain derived from HIV Tat; cell-permeable dominant negative inhibitor of autophagy (protein)
chain: MRGSHHHHHHGMASMTGGQQMGRDLYDDDDKDRWGSKLGYGRKKRRQRRRGGSTMSGYPYDVPDYAGSMAGTMTDDKDVLRDVWFGRIPTCFTLYQDEITEREAEPYYLLLPRVSYLTLVTDKVKKHFQKVMRQEDVSEIWFEYEGTPLKWHYPIGLLFDLLASSSALPWNITVHFKSFPEKDLLHCPSKDAVEAHFMSCMREADALKHKSQVINEMQKKDHKQLWMGLQNDRFDQFWAINRKLMEYPPEENGFRYIPFRIYQTTTERPFIQKLFRPVAADGQLHTLGDLLREVCPSAVAPEDGEKRSQVMIHGIEPMLETPLQWLSEHLSYPDNFLHISIVPQPTD
modifications: synthetic peptide or nucleic acid
B3: Tat-Beclin1: cell-permeable recombinant Tat fusion of rat Beclin 1; stimulant or activator of autophagy (protein)
chain: MRGSHHHHHHGMASMTGGQQMGRDLYDDDDKDRWGSKLGYGRKKRRQRRRGGSTMSGYPYDVPDYAGSMAGTGLEMEGSKASSSTMQVSFVCQRCSQPLKLDTSFKILDRVTIQELTAPLLTTAQAKPGESQEEEANSGEEPFIETRQDGVSRRFIPPARMMSTESANSFTLIGEASDGGTMENLSRRLKVTGDLFDIMSGQTDVDHPLCEECTDTLLDQLDTQLNVTENECQNYKRCLEMLEQMNEGDSEQLQRELKELALEEERLIQELEDVEKNRKVVAENLEKVQAEAERLDQEEAQYQREYSEFKRQQLELDDELKSVENQMRYAQMQLDKLKKTNVFNATFHIWHSGQFGTINNFRLGRLPSAPVEWNEINAAWGQTVLLLHALANKMGLKFQRYRLVPYGNHSYLESLTDKSKELPLYCSGGLRFFWDNKFDHAMVAFLDCVQQFKEEVEKGETRFCLPYRMDVEKGKIEDTGGSGGSYSIKTQFNSEEQWTKALKFMLTNLKWGLAWVSSQFYNK

How the values were obtained:
[1] = test system: HL-1 cells; assay: Autophagy scored by intracellular distribution of GFP-LC3 (fluorescence microscopy) in HL-1 cells; type: cell-based, murine; details: for modulation of autophagy: HL-1 cells transfected with LC3GFP, treated with Tat protein (FIG. 18)
[2] = test system: HL-1 cells; assay: Cell death by LDH release after simulated ischemia/reperfusion (sI/R) in HL-1 cells; type: cell-based, murine
Method: Cells of the murine atrial-derived cardiac cell line HL-1^16 were plated in gelatin/fibronectin-coated culture vessels and maintained in Claycomb medium^16 (JRH Biosciences, Lenexa, Kans.) supplemented with 10% fetal bovine serum, 0.1 mm norepinephrine, 2 mm […], 100 U·mL^-1 penicillin, 100 U·mL^-1 streptomycin, and 0.25 μg·mL^-1 amphotericin B. Cells were plated in 14-mm diameter glass bottom microwell dishes (MatTek), and ischemia was introduced by a buffer exchange to ischemia-mimetic solution (in mM: 20deoxyglucose, 125 NaCl, 8 KCl, 1.2 KH2PO4, 1.25 MgSO4, 1.2 CaCl2, 6.25 NaHCO2, 5 sodium lactate, 20 HEPES, pH 6.6) and placing the dishes in hypoxic pouches (GasPakTM EZ, BD Biosciences) equilibrated with 95% N2, 5% CO2. After 2 hr of simulated ischemia, reperfusion was initiated by a buffer exchange to normoxic MKH buffer and incubation at 95% room air, 5% CO2. […] Protein content and LDH activity were determined according to El-Ani et al.^20. Briefly, 25 μl supernatants from 35 mm dishes were transferred into wells of a 96-well plate, and the LDH activities were determined with an LDH-L kit (Sigma), according to the manufacturer. The product of the enzyme was measured spectrophotometrically at 30° C. at a wavelength of 340 nm as described previously^21. […]

[3] = test system: isolated perfused rat hearts; assay: Langendorff global ischemia/reperfusion injury in isolated perfused rat hearts (CK release, TTC infarct size, hemodynamics)
[4] = test system: isolated perfused rat hearts; assay: Autophagy in isolated perfused rat hearts (LC3-II/LC3-I Western blot, cadaverine dye binding); details: Tat protein approximately 200 nM before SUL
[5] = test system: adult rat cardiomyocytes; assay: Autophagy (GFP-LC3 puncta) in adult rat cardiomyocytes; type: cell-based; details: Tat protein 30 min before CCPA
[6] = test system: adult rat cardiomyocytes
[7] = test system: HL-1 cells; assay: Protection in cell culture by recombinant Tat-Beclin1; type: cell-based

Molecule | autophagy ([1]; transient transfection, co-transfected with GFP-LC3 (FIG. 6)) | effect on autophagy in the second window of protection ([1]; with CCPA 10 min, washout, 20-24 hr later) | effect on cytoprotection by CCPA (LDH release) ([2]; inhibitor plus CCPA, then sI/R (2 hr sI, 3 hr R)) | effect on cytoprotection by CCPA in the second window of protection (LDH release) ([2]; with CCPA 10 min, washout, sI/R 20-24 hr later) | effect on protection by sulfaphenazole given at reperfusion (infarct size) ([3]; FIG. 17, 3 hearts per condition) | infarct size ([3]; absence of SUL, vehicle control 38.5%, p=NS) [%] | infarct size ([3]; pretreatment with Tat-Atg5^K130R, then SUL infusion) | effect on autophagy induced by SUL (LC3-II/I ratio, cadaverine dye binding) [4] | modulation of autophagy [1] | effect on autophagy [5] | effect on protection by CCPA (LDH release) ([6]; Tat protein 30 min before CCPA, then simulated ischemia) | LDH release under normoxic conditions ([6]; absence of CCPA, normoxia) | injury from sI/R ([6]; absence of CCPA, sI/R) | protection [7]
B1 | effectively suppressed autophagy | suppressed autophagy in the second window of protection | eliminated the protective effects of CCPA after sI/R | abolished the cytoprotective effect of CCPA | – | – | – | – | – | – | – | – | – | –
B2 | – | – | – | – | protection is lost | 42.0 | 30 % of the area at risk | potently suppressed autophagy induced by SUL | inhibits autophagy | suppressed autophagy | eliminated the protection by CCPA | did not increase LDH release | nor did it exacerbate injury from sI/R | –
B3 | – | – | – | – | – | – | – | – | stimulates autophagy | – | – | – | – | protection in cell culture
